Results from paper PMC6746776, “TA*p63 and GTAp63 achieve tighter transcriptional regulation in quality control by converting an inhibitory element into an additional transactivation domain” (Cell Death & Disease, 2019).
Residues, ends and D or L forms follow the SMILES beside them.

Legend:
[1] = biological target: GTAp63α FWL (not stated (isoform of humans and great apes)); test: SEC; in vitro translated protein in rabbit reticulocyte lysate on Superose 6 3.2/300, 50 mM sodium phosphate pH 7.8, 100 mM NaCl, 4 °C; fractions analysed by western blot
[2] = biological target: TAp63α; test: native gel or EMSA; Blue-Native PAGE (3-12%) of lysates of transiently transfected H1299 cells, untreated, harvested 24 h after transfection; western blot with anti-myc
[3] = biological target: TAp63α; test: native gel or EMSA; Blue-Native PAGE of lysates of transiently transfected U2OS or H1299 cells treated with 10 µM doxorubicin for 6 h; western blot with anti-myc
[4] = biological target: T1, p300 Taz2 domain (Homo sapiens, UniProt Q09472); test: Fluorescence anisotropy with the Taz2 domain of p300; conditions: 100 nM N-terminal fluorescein-labeled peptide, increasing concentration of Taz2, 22 °C, two site specific binding fit (GraphPad Prism 5)
T1 construct: The p300 Taz2 domain was expressed and purified as described before; made in house
T1 sequence (Q09472 1728-1809 limits assumed): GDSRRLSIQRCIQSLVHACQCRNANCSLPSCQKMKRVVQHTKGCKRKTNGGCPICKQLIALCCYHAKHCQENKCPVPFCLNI
Procedure: Fig. 5 Transactivation potential of constitutively tetrameric TA*p63 and GTAp63 isoforms and its correlation with p300 Taz2 domain interaction. a TA assay of C-terminal TA*p63 and GTAp63 isoforms in comparison to TAp63 C-terminal isoforms on the p21 promotor. p53 wt was used as positive, the p53 R175H mutant as negative control. Hundred nanogram of each plasmid (pcDNA3, pGL3 and pRL-CMV) were transiently transfected in Saos-2 cells (12-well plate). Cells were harvested 24 h after transfection and assay was performed. b, c TA titration assay of TA*p63γ and GTAp63γ compared to TAp63γ on the p21 promotor. […] Protein levels were determined via western blotting. […] GAPDH was used as loading control. p63 isoforms were detected with the p63 antibody ab124762 (Abcam) for sensitivity reasons. e TA assay of FWL and potential new TA motif mutants to alanine in the N-terminus of the TA*/GTAp63 isoforms (TA*p63: Y18* F22*, W31* Y35*; GTAp63:.W9′ F12′ V15′, W29′ Y33′) on the p21 promotor. p53 wt was used as positive control, the p53 R175H mutant as negative control. […] Bars represent the mean value of the biological triplicate, error bars represent SD, crosses represent mean value of the technical replicates. f Fluorescence anisotropy experiment with the Taz2 domain of p300 and either N-terminal fluorescein-tagged TA*-GTA*- (1*-39*) or GTA-GTA*- (1′-37′) peptide. […]

[5] = biological target: GTAp63α (not stated (isoform of humans and great apes)); test: native gel or EMSA; Blue-Native PAGE (3-12%) of lysates of transiently transfected H1299 cells, untreated, harvested 24 h after transfection; western blot with anti-myc
[6] = biological target: GTAp63α (not stated (isoform of humans and great apes)); test: native gel or EMSA; Blue-Native PAGE of lysates of transiently transfected U2OS or H1299 cells treated with 10 µM doxorubicin for 6 h; western blot with anti-myc
[7] = biological target: GTAp63α (not stated (isoform of humans and great apes)); test: as above; remark: listed apart in the source
[8] = biological target: GTA-GTA* peptide (1′-37′) (not stated (isoform of humans and great apes)); test: fluorescence polarisation; fluorescence anisotropy; 100 nM N-terminally fluorescein-labelled peptide, increasing concentration of Taz2; 22 °C; two site specific binding fit
[9] = biological target: T2, TA*-GTA* peptide (1*-39*) (fluorescein on the N-terminus); test: as above; conditions: both partners purified
T2 chain: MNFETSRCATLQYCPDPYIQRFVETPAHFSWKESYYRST

[10] = biological target: the molecule itself; test: native gel or EMSA; Blue-Native PAGE of lysates of transiently transfected U2OS or H1299 cells treated with 10 µM doxorubicin for 6 h; western blot with anti-myc
[11] = biological target: the molecule itself; test: native gel or EMSA; Blue-Native PAGE (3-12%) of lysates of transiently transfected H1299 cells, untreated, harvested 24 h after transfection; western blot with anti-myc
[12] = biological target: the molecule itself; test: native gel or EMSA; Blue-Native PAGE (3-12%) of Sum159 lysate, endogenous protein, before doxorubicin
[13] = biological target: the molecule itself; test: native gel or EMSA; Blue-Native PAGE (3-12%) of Sum159 lysate, endogenous protein, cells treated with 10 µM doxorubicin for different periods of time

Q: GTAp63α FWL (natural protein) was tested. Which stoichiometry N [1] did it give?
A: 2

Q: Which results are given for TAp63α (natural protein)?
A: stoichiometry N [2]: 2; stoichiometry N [3]: 4

Q: For CC[C@H](C)[C@H](NC(=O)[C@H](Cc1ccc(O)cc1)NC(=O)[C@@H]1CCCN1C(=O)[C@H](CC(=O)O)NC(=O)[C@@H]1CCCN1C(=O)[C@H](CS)NC(=O)[C@H](Cc1ccc(O)cc1)NC(=O)[C@H](CCC(N)=O)NC(=O)[C@H](CC(C)C)NC(=O)[C@@H](NC(=O)[C@H](C)NC(=O)[C@H](CS)NC(=O)[C@H](CCCNC(=N)N)NC(=O)[C@H](CO)NC(=O)[C@@H](NC(=O)[C@H](CCC(=O)O)NC(=O)[C@H](Cc1ccccc1)NC(=O)[C@H](CC(N)=O)NC(=O)[C@@H](N)CCSC)[C@@H](C)O)[C@@H](C)O)C(=O)N[C@@H](CCC(N)=O)C(=O)N[C@@H](CCCNC(=N)N)C(=O)N[C@@H](Cc1ccccc1)C(=O)N[C@H](C(=O)N[C@@H](CCC(=O)O)C(=O)N[C@H](C(=O)N1CCC[C@H]1C(=O)N[C@@H](C)C(=O)N[C@@H](Cc1c[nH]cn1)C(=O)N[C@@H](Cc1ccccc1)C(=O)N[C@@H](CO)C(=O)N[C@@H](Cc1c[nH]c2ccccc12)C(=O)N[C@@H](CCCCN)C(=O)N[C@@H](CCC(=O)O)C(=O)N[C@@H](CO)C(=O)N[C@@H](Cc1ccc(O)cc1)C(=O)N[C@@H](Cc1ccc(O)cc1)C(=O)N[C@@H](CCCNC(=N)N)C(=O)N[C@@H](CO)C(=O)N[C@H](C(=O)O)[C@@H](C)O)[C@@H](C)O)C(C)C [TA*-GTA*] (H-MNFETSRCATLQYCPDPYIQRFVETPAHFSWKESYYRST-OH), which Kd [4] is on record?
A: 13.2 ± 0.93 µM

Q: Which results are given for GTAp63α (natural protein)?
A: stoichiometry N [5]: 2; stoichiometry N [6]: 2; stoichiometry N [7]: 4

Q: CSCC[C@H](N)C(=O)N[C@@H](CCCCN)C(=O)N[C@@H](CS)C(=O)N[C@@H](Cc1c[nH]c2ccccc12)C(=O)N[C@@H](CCC(=O)O)C(=O)N[C@@H](CCC(N)=O)C(=O)N[C@@H](CCCNC(=N)N)C(=O)N[C@@H](CC(=O)O)C(=O)N[C@@H](Cc1c[nH]c2ccccc12)C(=O)N[C@H](C(=O)N[C@@H](C)C(=O)N[C@@H](Cc1ccccc1)C(=O)N[C@H](C(=O)N[C@@H](CCCCN)C(=O)N[C@H](C(=O)NCC(=O)N[C@@H](CCCCN)C(=O)N1CCC[C@H]1C(=O)N[C@@H](CS)C(=O)N[C@@H](Cc1ccccc1)C(=O)N[C@H](C(=O)N[C@@H](CCC(=O)O)C(=O)N[C@H](C(=O)N1CCC[C@H]1C(=O)N[C@@H](C)C(=O)N[C@@H](Cc1c[nH]cn1)C(=O)N[C@@H](Cc1ccccc1)C(=O)N[C@@H](CO)C(=O)N[C@@H](Cc1c[nH]c2ccccc12)C(=O)N[C@@H](CCCCN)C(=O)N[C@@H](CCC(=O)O)C(=O)N[C@@H](CO)C(=O)N[C@@H](Cc1ccc(O)cc1)C(=O)N[C@@H](Cc1ccc(O)cc1)C(=O)N[C@@H](CCCNC(=N)N)C(=O)N[C@@H](CO)C(=O)N[C@H](C(=O)O)[C@@H](C)O)[C@@H](C)O)C(C)C)C(C)C)[C@@H](C)O)[C@@H](C)O [GTA-GTA*] (H-MKCWEQRDWTAFTKVGKPCFVETPAHFSWKESYYRST-OH) was tested. Which Kd [4] did it give?
A: 4.79 ± 0.24 µM

B1: p300 Taz2 domain (domain or fragment)
chain: ATQSPGDSRRLSIQRCIQSLVHACQCRNANCSLPSCQKMKRVVQHTKGCKRKTNGGCPICKQLIALCCYHAKHCQENKCPVPFCLNIKQK
Q: B1 was tested. Which Kd [8] did it give?
A: 4.79 µM

Q: What about the Kd [9] of the same molecule?
A: 13.2 ± 0.93 µM

B2: TA*p63α (natural protein, UniProt Q9H3D4-1 1-680, looked up)
chain: MNFETSRCATLQYCPDPYIQRFVETPAHFSWKESYYRSTMSQSTQTNEFLSPEVFQHIWDFLEQPICSVQPIDLNFVDEPSEDGATNKIEISMDCIRMQDSDLSDPMWPQYTNLGLLNSMDQQIQNGSSSTSPYNTDHAQNSVTAPSPYAQPSSTFDALSPSPAIPSNTDYPGPHSFDVSFQQSSTAKSATWTYSTELKKLYCQIAKTCPIQIKVMTPPPQGAVIRAMPVYKKAEHVTEVVKRCPNHELSREFNEGQIAPPSHLIRVEGNSHAQYVEDPITGRQSVLVPYEPPQVGTEFTTVLYNFMCNSSCVGGMNRRPILIIVTLETRDGQVLGRRCFEARICACPGRDRKADEDSIRKQQVSDSTKNGDGTKRPFRQNTHGIQMTSIKKRRSPDDELLYLPVRGRETYEMLLKIKESLELMQYLPQHTIETYRQQQQQQHQHLLQKQTSIQSPSSYGNSSPPLNKMNSMNKLPSVSQLINPQQRNALTPTTIPDGMGANIPMMGTHMPMAGDMNGLSPTQALPPPLSMPSTSHCTPPPPYPTDCSIVSFLARLGCSSCLDYFTTQGLTTIYQIEHYSMDDLASLKIPEQFRHAIWKGILDHRQLHEFSSPSHLLRTPSSASTVSVGSSETRGERVIDAVRFTLRQTISFPPRDEWNDFNFDMDARRNKQQRIKEEGE
notes: TA*p63α: another translation start site adds 39 aa N-terminally to TAp63α; also called myc-tagged TA*p63α; source: H1299, transiently transfected (pcDNA3), in lysate; not shown: myc, N-terminal, kept
Q: Which results are given for B2?
A: stoichiometry N [10]: 4; stoichiometry N [11]: 2

B3: TA*p63α (natural protein, human (endogenous in Sum159), UniProt Q9H3D4-1 1-680, looked up)
chain: MNFETSRCATLQYCPDPYIQRFVETPAHFSWKESYYRSTMSQSTQTNEFLSPEVFQHIWDFLEQPICSVQPIDLNFVDEPSEDGATNKIEISMDCIRMQDSDLSDPMWPQYTNLGLLNSMDQQIQNGSSSTSPYNTDHAQNSVTAPSPYAQPSSTFDALSPSPAIPSNTDYPGPHSFDVSFQQSSTAKSATWTYSTELKKLYCQIAKTCPIQIKVMTPPPQGAVIRAMPVYKKAEHVTEVVKRCPNHELSREFNEGQIAPPSHLIRVEGNSHAQYVEDPITGRQSVLVPYEPPQVGTEFTTVLYNFMCNSSCVGGMNRRPILIIVTLETRDGQVLGRRCFEARICACPGRDRKADEDSIRKQQVSDSTKNGDGTKRPFRQNTHGIQMTSIKKRRSPDDELLYLPVRGRETYEMLLKIKESLELMQYLPQHTIETYRQQQQQQHQHLLQKQTSIQSPSSYGNSSPPLNKMNSMNKLPSVSQLINPQQRNALTPTTIPDGMGANIPMMGTHMPMAGDMNGLSPTQALPPPLSMPSTSHCTPPPPYPTDCSIVSFLARLGCSSCLDYFTTQGLTTIYQIEHYSMDDLASLKIPEQFRHAIWKGILDHRQLHEFSSPSHLLRTPSSASTVSVGSSETRGERVIDAVRFTLRQTISFPPRDEWNDFNFDMDARRNKQQRIKEEGE
notes: also called endogenous TA*p63α of Sum159 cells; source: endogenous, Sum159 lysate
Q: How did the “stoichiometry N” value [12] turn out when B3 was run?
A: 2

Q: What about the “stoichiometry N” value [13] of the same molecule?
A: 4
